We go through three molecules from patent KR20220147769A (dated 2022).

Numbering of substitutions follows the chain as printed.

The labels stand for the following.
B1: RB6 (antibody, V domains shown)
VH: EVQLLESGGGLVQPGGSLRLSCAASGFTFSSYDMSWVRQAPGKGLEWVSGISYSGGSTYYADSVKGRFTISRDNSKNTLYLQMNSLRAEDTAVYYCARDVNFVPLVTFDYWGQGTLVTVSS
VL: QSVLTQPPSASGTPGQRVTLSCTGSSSNIGSNSVTWYQQLPGTAPKLLIYDDNQRPSGVPDRFSGSKSGTSASLAISGLRSEDEADYYCGTWDYSLSAYVFGGGTKLTVL
notes: also called clone RB6; antibody (iii)
B2: RD3 (antibody, V domains shown)
VH: EVQLLESGGGLVQPGGSLRLSCAASGFTFSDYAMSWVRQAPGKGLEWVSWIYSGSGNKYYADSVKGRFTISRDNSKNTLYLQMNSLRAEDTAVYYCARFPIARTSNSQSSYDGMDVWGQGTLVTVSS
VL: B1 VL with L20I, T23S, S33A, T35S, D51A, Q54K, T91A, Y94S, S97N
notes: also called clone RD3; antibody (iv)
B3: RD10 (antibody, V domains shown)
VH: EVQLLESGGGLVQPGGSLRLSCAASGFTFSDYAMSWVRQAPGKGLEWVSAIYPGGGSTYYADSVKGRFTISRDNSKNTLYLQMNSLRAEDTAVYYCARNLFGFDYWGQGTLVTVSS
VL: B1 VL with L20I, S33A, T35Y, N53S, Q54N, T91S, Y94D
notes: also called clone RD10; antibody (v)

The target of the test is T1, SARS-CoV S protein RBD antigen (SARS-CoV, UniProt P59594 306-527).
T1 construct: also called SARS-CoV RBD
The experiment in a line: ELISA, 0.1 μg antigen coated, IgG4. A general note: ELISA stands for enzyme-linked immunosorbent assay.
For the molecule B1, the binding result was “binds”.

Consider B2, for which the binding result was “binds”.

As to B3, the binding result is “binds”.
